The values that follow are results of earlier work, collected in paper PMC9241160.

This series concerns the target Fibrinogen beta chain N-terminal fibrinopeptide (Homo sapiens) (UniProt P02675).

Consider SdrG N2-N3 (from UniProt Q9KI13), for which the Kd (usually the constant that tells how readily two partners part at equilibrium) is 400 nM.
